Measured values as given in US12559545.

How the values were obtained:
[1] = target: HeV-RBP head domain (residues 185-604), recombinant soluble (Hendra virus) (UniProt O89343); test: BLI on HeV RBP head domain, after first mAb HENV-21
[2] = target: full-length HeV-RBP expressed on the surface of transfected cells (Hendra virus) (UniProt O89343)
[3] = target: full-length NiVM-RBP expressed on the surface of transfected cells (Nipah virus, strain Malaysia) (UniProt Q9IH62)
[4] = target: full-length NiVB-RBP expressed on the surface of transfected cells (Nipah virus, strain Bangladesh) (UniProt Q9IH62)
[5] = target: NiVM-RBP head domain (residues 183-602), recombinant soluble (Nipah virus, strain Malaysia) (UniProt Q9IH62); test: ELISA, RBP head domain coated on plate, hybridoma IgG
[6] = target: NiVB-RBP head domain (residues 185-602), recombinant soluble (Nipah virus, strain Bangladesh) (UniProt Q9IH62); test: as above
[7] = target: HeV-RBP head domain (residues 185-604), recombinant soluble (Hendra virus) (UniProt O89343); test: as above
[8] = target: HeV-RBP head domain (residues 185-604), recombinant soluble (Hendra virus) (UniProt O89343); test: BLI on HeV RBP head domain, after first mAb HENV-26
[9] = target: HeV-RBP head domain (residues 185-604), recombinant soluble (Hendra virus) (UniProt O89343); test: BLI on HeV RBP head domain, after first mAb HENV-18
[10] = target: HeV-RBP head domain (residues 185-604), recombinant soluble (Hendra virus) (UniProt O89343); test: BLI on HeV RBP head domain, after first mAb HENV-1
[11] = target: HeV-RBP head domain (residues 185-604), recombinant soluble (Hendra virus) (UniProt O89343); test: BLI on HeV RBP head domain, after first mAb HENV-19
[12] = target: HeV-RBP head domain (residues 185-604), recombinant soluble (Hendra virus) (UniProt O89343); test: BLI on HeV RBP head domain, after first mAb HENV-2
[13] = target: HeV-RBP head domain (residues 185-604), recombinant soluble (Hendra virus) (UniProt O89343); test: BLI on HeV RBP head domain, after first mAb HENV-9
[14] = target: HeV-RBP head domain (residues 185-604), recombinant soluble (Hendra virus) (UniProt O89343); test: BLI on HeV RBP head domain, after first mAb HENV-32
[15] = target: HeV-RBP head domain (residues 185-604), recombinant soluble (Hendra virus) (UniProt O89343); test: BLI on HeV RBP head domain, after first mAb HENV-10
[16] = target: NiVB RBP on live Nipah virus Bangladesh (Nipah virus, strain Bangladesh) (UniProt Q9IH62); test: cell-based or functional assay
[17] = target: HeV RBP on live Hendra virus (Hendra virus) (UniProt O89343); test: cell-based or functional assay
[18] = target: HeV-RBP head domain (residues 185-604), recombinant soluble (Hendra virus) (UniProt O89343); test: BLI on HeV RBP head domain, after first mAb HENV-43

Substance: HENV-26 (antibody)
- % of signal of second mAb alone [1]: 99%
- EC50 [2]: 0.325 µg/mL
- EC50 [3]: 0.326 µg/mL
- EC50 [4]: 0.326 µg/mL
- Area under the curve [5]: 11
- EC50 [5]: 0.07 µg/mL
- Area under the curve [6]: 10.5
- EC50 [6]: 0.09 µg/mL
- Area under the curve [7]: 5.39
- EC50 [7]: 0.14 µg/mL
- % of signal of second mAb alone [8]: -5%
- % of signal of second mAb alone [9]: 91%
- % of signal of second mAb alone [10]: 97%
- % of signal of second mAb alone [11]: 91%
- % of signal of second mAb alone [12]: 97%
- % of signal of second mAb alone [13]: 97%
- % of signal of second mAb alone [14]: 100%
- % of signal of second mAb alone [15]: 100%
- Area under the curve (neutralization) [16]: 289
- IC50, plaque reduction neutralization of live virus [16]: 0.03 µg/mL
- IC80, plaque reduction neutralization of live virus [16]: 0.12 µg/mL
- Max % Inhibition (neutralization) [16]: 100%
- Area under the curve (neutralization) [17]: 281
- IC50, plaque reduction neutralization of live virus [17]: 0.07 µg/mL
- IC80, plaque reduction neutralization of live virus [17]: 0.19 µg/mL
- Max % Inhibition (neutralization) [17]: 100%
- % of signal of second mAb alone [18]: 109%
